Measured values published in US20090208538A1 (published 2009).

Assays:
[1] = target: T1, cdr2, human peptide on HLA-A*02:01 (human); experiment: cytokine release
T1 peptide: SLLEEMFLT

[2] = target: T2, cdr2, human peptide on HLA-A*02:01 (human); experiment: cytokine release
T2 peptide: SLLEEMFLTV

[3] = target: T3, cdr2 (cerebellar degeneration-related 2 protein), human peptide on HLA-A*02:01 (human); experiment: multimer staining
T3 peptide: LLEEMFLTV

- binding result [1]: no recognition
- binding result [2]: recognises
- binding result [3]: recognises
B1: cdr2 TCR (clone 11/12) (TCR, V domains shown)
Valpha: QQQVRQSPQSLTVWEGGTTVLTCSYEDSTFNYFPWYQQFPGEGPALLISILSVSDKKEDGRFTTFFNKREKKLSLHIIDSQPGDSATYFCAASGASGGSNAKLTFGKGTKLSVKS
Vbeta: DSGVVQSPRHIIKEKGGRSVLTCIPISGHSNVVWYQQTLGKELKFLIQHYEKVERDKGFLPSRFSVQQFDDYHSEMNMSALELEDSAMYFCASSLGGWAEQFFGPGTRLTVL
